Like-named read-outs stand apart in the source and are kept apart here.
Tests used:
SEC [1] = assay: SEC
SEC [2] = assay: SEC; remark: listed apart in the source

Substance | % monomer (SEC [1]) [%] | % monomer (SEC [2]) [%]
IgG1-Y407A | 5 | 1
IgG1-Y407E (natural mixture of HL and (HL)2) | 95 | 90

— PMC3893232
